Experimental data reported in patent US20120149104A1 (ALLERGAN, published 2012).
Numbering of substitutions follows the chain as printed.

B1: α-SNAP-25 monoclonal antibody 1D3B8 (antibody, V domains shown)
VH: QVKLQESGAELVKPGASVKISCKASGYIFTDHALHWVRQKPEQGLEWIGYIFPGNGNIEYNEKFKGKATLTADKSSSTAYMQLNSLTSGDSAMYFCKKMDYWGQGTTVTVSS
VL: DVLMTQTPLSLPVSLGDQASISCRSSQSIVHSNGNTYLEWYLQKPGQSPKLLIYKVSNRFSGVPDRFSGSGSGTDFTLKISRVEAEDLGVYYCFQGSHVPPTFGAGTKLELKR
B2: α-SNAP-25 monoclonal antibody 2C9B10 (antibody, V domains shown)
VH: B1 VH with I28T, A33S, L34I, R38K, E42G, I51L, I58F, Q82H, G89E, M93V
VL: DIQMTQSPASLSASVGETVTITCRTTENIYSYFVWSQQRQGKSPQLRVYNAKSLAEGVPSSFNVSVSGTQFSLKINSLQPEDFGTYHCQHHYGTPYTFGGGTRLEIRR
B3: α-SNAP-25 monoclonal antibody 2E2A6 (antibody, V domains shown)
VH: QVQLQQSDAELVKPGASVKISCRASGYTFTDHSIHWVKQQPGQGLEWIGYIFPGNGNIEYNDKFKGKATLTADKSSGTAYMQLNSLTSEDSAVYFCKRMGYWGQGTSVTVSS
VL: DVLMTQTPLTLSVTIGQPASISCKSSQSLLYTNGKTYLTWLFQRPGQSPKRLIYLVSELDSGVPDRFSGSGSGTDFTLEITRVEAEDLGVYYCLQSAHFPFTFGSGTKLEIKR
B4: α-SNAP-25 monoclonal antibody 3C1A5 (antibody, V domains shown)
VH: QVKLQESGAELVKPGASVKISCKASGYTFTDHSIHWVKQKPGQGLEWIGYLFPGNGNFEYNEKFKGKATLTADKSSSTVYMYLNSLTSEDSAVYFCKRMGYWGQGTTVTVSS
VL: B3 VL with L3V, Y31N, F42I, K50Q, E58K, E79K, T81S, A97S

What was measured:
[1] = molecular target: T1, SNAP-25 peptide comprising amino acids 134-197 of SEQ ID NO: 5 (human); assay: SPR (BIAcore 3000), peptide on CM5 chip, antibody in flow
[2] = molecular target: T1, SNAP-25 peptide comprising amino acids …; assay: as above; remark: listed apart in the source
[3] = molecular target: SNAP-25 peptide comprising amino acids 134-206 of SEQ ID NO: 5 (human); assay: as above
[4] = molecular target: T2, SNAP-25206 uncleaved substrate (in PC12 cells) (UniProt P60881 1-206); assay: cell-based assay, Western blot of PC12 cells +/- GFP-BoNT/A-LC, ascites 1:100
T2 construct: domain: SNAP-25206 uncleaved substrate; also called uncleaved SNAP-25

[5] = molecular target: T1, SNAP-25 peptide comprising amino acids …; assay: SPR (BIAcore 3000), peptide on CM5 chip, antibody in flow; value in parentheses, second determination not explained
[6] = molecular target: T1, SNAP-25 peptide comprising amino acids …; assay: SPR (BIAcore 3000), peptide on CM5 chip, antibody in flow; value in parentheses, second determination not explained; value in parentheses (second set for 2E2A6; KD 0.405 nM, used in paragraph 239)

T2 sequence (P60881 whole entry): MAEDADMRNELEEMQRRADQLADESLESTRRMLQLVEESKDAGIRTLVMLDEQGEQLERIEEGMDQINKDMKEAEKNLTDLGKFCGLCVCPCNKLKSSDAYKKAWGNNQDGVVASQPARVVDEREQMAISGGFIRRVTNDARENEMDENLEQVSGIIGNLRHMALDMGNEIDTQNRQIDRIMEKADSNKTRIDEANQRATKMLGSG

Row | Binder | fold difference of the equilibrium disassociation constant against MC-6050 and MC-6053 [1] [fold] | Kd [2] [pM] | koff [2] [s⁻¹] | kon [2] [M⁻¹ s⁻¹] | binding result [3] | binding result [4] | fold difference of the off rate/dissociation constant against MC-6050 and MC-6053 [1] [fold] | Kd [5] [pM] | koff [5] [s⁻¹] | kon [6] [M⁻¹ s⁻¹]
1 | B1 | ~10 | 50 | 5.78e-05 | 1.06e+06 | no binding (tested: 125 nM) | no binding |  |  |  | 
2 | B2 |  | 27100 | 0.000311 | 11500 |  | no binding |  |  |  | 
3 | B3 |  | 90 | 0.000153 | 1.7e+06 | no binding (tested: 10 µM) | no binding | ≥ 1 | 405 | 6.74e-05 | 166000
4 | B4 |  | 1330 | 0.000288 | 217000 | no binding (tested: 100 nM) | no binding |  |  |  | 
